# From publication PMC4742278, “BS69/ZMYND11 C-Terminal Domains Bind and Inhibit EBNA2” (PLoS Pathogens, 2016)
# Experiments:
# [1] = target: EBNA2 PXLXP2 mutant (Epstein-Barr virus, strain W91) (UniProt P12978)
# [2] = target: Epstein-Barr virus nuclear antigen 2 (EBNA2), expressed from a plasmid (Epstein-Barr virus, strain W91) (UniProt P12978)
# [3] = target: flag-tagged BS69_(CC-MYND) Q546A (mouse); assay: co-IP
# [4] = target: flag-tagged BS69_(CC-MYND) Q546A/W550A (mouse); assay: co-IP
# [5] = target: EBNA2 fragment residues 381–445 (EBNA2_(381–445)) (Epstein-Barr virus, strain B95-8) (UniProt P12978); assay: ITC
# [6] = target: BS69 MYND domain (BS69_(MYND), residues 516–562) (mouse); assay: ITC; peptide (~1 mM) titrated into BS69_(MYND) or BS69_(CC-MYND) (~0.1 mM) at 5°C; 20 mM Tris-HCl pH 7.5, 100 mM NaCl, 2 mM DTT; one-site fitting model
# [7] = target: BS69/ZMYND11 coiled-coil-MYND tandem domains (BS69_(CC-MYND), residues 440–562) (mouse); assay: as above
# [8] = target: BS69_(MYND) R560A (mouse); assay: as above
# [9] = target: BS69_(MYND) Y532A (mouse); assay: as above
substance,measurement,setting,value
flag-tagged wild-type BS69_(CC-MYND) (domain or fragment),BS69 inhibition of the LMP1-Luc reporter activated by the EBNA2 PXLXP2 mutant,[1],50%
same,EBNA2 activation of the LMP1-Luc or Cp-Luc reporter in BJAB cells in the presence of wild-type BS69 (CC-MYND) (around 10-fold without BS69),[2],< 2 fold
"Epstein-Barr virus nuclear antigen 2 (EBNA2), expressed from a plasmid (from UniProt P12978 1-487) (natural protein)",percent reduction of EBNA2 binding against wild type,[3],50%
same,percent reduction of EBNA2 binding against wild type,[4],85%
"BS69/ZMYND11 coiled-coil-MYND tandem domains (BS69_(CC-MYND), residues 440–562) (domain or fragment)",Kd,[5],240 nM
EBNA2_(381–389) peptide with an additional Gly-Tyr dipeptide at the C-terminus (NH2-[…]-CONH2),Kd,[6],25.6 µM
same,Kd,[7],7.4 µM
same,fold decrease of binding against wild-type BS69 (MYND),[8],10 fold
same,fold decrease of binding against wild-type BS69 (MYND),[9],3 fold
